In a protein production outcome set (Wang et al. 2014):

Assay: label from the status in PepcDB records

Sequence	protein production
MRNLLQKCFKWQWLVCLAVGCCFSSCKDDEESTSGYDPNKPIVLTDFYPPEGKLATQVILNGSNFGDSKENVKVFFNDKEASVISVKDDRMLVLAPKRASTIEDPECVVKVQVHEQIEEYKQTFDYYIQTTVTTLVGGSTSAQVNPTGTIPLSEAQFRANIDRCICVDQDKNVFFLVDNDGKFAAFMLNEEADKLISLKSDINALFNSPVLGYNSKDDIVYQFWANRDSHEVYYFDPKTDYAPTTAISSISWDDPNFPNIEGFGVWAAKCNFTMGPDGKMYSRMLGGNLVRIDVENARGENLTNGDLVGTKDGSAYGLVFDPQDENVFYFSNNDKHCIYKYDLRTKECACWAGQEGKSGYLDGPIGQAMFNKPGQMCVDSEGNIILTDTENHCIRKITMSTGYVSTLAGKPQNSGYVNGSAEDAQFKKPLGICIDNDDVMYIGDSENRAIRRLAVELEHHHHHH	not failed
MRNNLSAYSNIETGEAATELECFPYSVQHNDEGVCLLVRMGPHRILLDCGLADISSIQKSLTPSVKRGNPPSPADLVLVTHAHPDHARGLLALHQAFPNLPIYGSEVTSKLLPLNWLDHNPQEIPQLCHALPLRSPVELQDGLVAEIFPCGHLPGAVAILLTYTTEQRSYKLLYTGDFFLSNSRLVEGLRLEELRGIDLNVLIIEGTYGTSRHPHRRNQENQLAERINRAISDRYSVVLPTPALGLGQELLMLLRSHHHFTGRDLDIWVDGAVAIGCDAYLELLPHLPASVQNFARHQPLFWDERVRPRVRRLQAENRSIVGKSPCIVLTDSTSDLEQYCQPETGPWLILLPEKIDIKVNKKYSAPTTVESYLLAQHSDGPGTTQLIHNLRPQHVVFVHGSPAYLADLTCLEELQNRYHIHSPAAETMVELLIGETFLQPAPPETNYEGELTELGTVITISIPEAITADPRWRQFADTGLIEARWQGEELVLRGLTQRELLNQNSDRNIPPEIDCCGTCRHQRGQRCWNPSSPLYNFRVTLEGHCPAFERLSNGE	failed
MRNPNDVFHLAIPARDLDEAYDFYVTKLGCKLARRYPDRITLDFFGDQLVCHLSDRWDREVSMYPRHFGITFRDKKHFDNLYKLAKQRGIPFYHDLSRRFEGLIEEHETFFLIDPSNNLLEFKYYFDDRMMY	not failed
MRPAHICLAVLVAAVWGVNFTVIEVGLAHFPPLLFSALRFLAAALPAVFFVGRPKVAWKWIVAVGLVLGVAKFGLLFIGMDAGMPAGLSSLVLQIQAVFTALIAFAALGERPTGIRLAGMAVALCGVGLAAVDEGTGGPLGAFALVIGAAVCWGASNVLTRKASPPDPLNFMVWVSTVPVVPLLGLSLLTEGPSADLNALGSLDWQGAGVILYVAWITTVFGFGAWGWLLHRHPASTVAPFSLLVPVFGMSSAALFLGEPIGPMRWGAAALLAGGVALTSLAPGKERSGGPNTLDLRGVGIHEAGR	failed
MRPCCHWRPGPSGCHCCAGCGLAAEARRARERRGEAVIGLCGALAGEVRAGRQPGEALLHAAGDSGGLGDAQAAVLAAARFGGDVPGALADAAGQPGAEGLLGLGACWRVAVDRGAGLAAGLDRLEAALRAERDQRAELRAQLAGARSTAVMLAALPVLGLLLGTALGADPLHVVLHTGAGLACLLAGAVLEGAGLWWALRIVRGAEAA	failed
MRPDLSRVPGVLGEIARKRASEVAPYPLPEPPSVPSFKEALLRPGLSVIAEVKRQSPSEGLIREVDPVEAALAYARGGARAVSVLTEPHRFGGSLLDLKRVREAVDLPLLRKDFVVDPFMLEEARAFGASAALLIVALLGELTGAYLEEARRLGLEALVEVHTERELEIALEAGAEVLGINNRDLATLHINLETAPRLGRLARKRGFGGVLVAESGYSRKEELKALEGLFDAVLIGTSLMRAPDLEAALRELVG	not failed
MRPETLAVIQKQLTKIKAAQRNMTDNEVLRSMDEIMFCFENCYTEDETFTHIAQMFPSYVLKIVKSFFQISKAVTDEESREAYLTDAEECASVRRSQARDTSEEAKRSQDTLMGRLILIFMRPETREIIEMQLLPAMKLVKERLEREVEKQSMDEFMFCFENCYTEKETEMHVTRKFPSLKQSDVGIGFQTFIGLIDKESSREAYLKDAEDCANVRRIEARQGEASTSHKCEPNCNKH	failed
MRPLARLRGRRVVPQRSAGELDAMAAAGAVVAAALRAIRAAAAPGTSSLSLDEIAESVIRESGATPSFLGYHGYPASICASINDRVVHGIPSTAEVLAPGDLVSIDCGAVLDGWHGDAAITFGVGALSDADEALSEATRESLQAGIAAMVVGNRLTDVAHAIETGTRAAELRYGRSFGIVAGYGGHGIGRQMHMDPFLPNEGAPGRGPLLAAGSVLAIEPMLTLGTTKTVVLDDKWTVTTADGSRAAHWEHTVAVTDDGPRILTLG	failed
MRPVDEQWIEILRIQALCARYCLTIDTQDGEGWAGCFTEDGAFEFDGWVIRGRPALREYADAHARVVRGRHLTTDLLYEVDGDVATGRSASVVTLATAAGYKILGSGEYQDRLIKQDGQWRIAYRRLRNDRLVSDPSVAVNVADADVAAVVGHLLAAARRLGTQMSDT	not failed
MRQPFQVLVIPFIKTEANYQFGVLHRTDADVWQFVAGGGEDEEAISETAKRESIEELNLDVDVKMYSLDSHASIPNFHFSFNKPYVVPEYCFAIDLTSCSYQVTLSLEHSELRWVSYESAIQLLEWDSNKTALYELNERLKNNDMKAM	not failed
MRQRDDSKRIAFLEATVREVADHGFSATSVGKIAKAAGLSPATLYIYYEDKEQLLLATFYYVSDQVIDAALDSFSRGKDLREGLRRQWHTLFRIGLERPELFRYHETFTHSAWMTPEIQARNESRAANLLNAVDQGKQSGLIKPVPFPLLETFMFRPIYHLVQRCLQGSFEGTDEHIELAFNMAWDAVADRRNT	not failed
MRQSYRTPLLASLLVLICAVVLWNAYEWFQGRYLRAFSEHTAMFSGDPLQLPAELAGPGAIRLVHFWDPACPCNVGNQQHLAELIEAYSPRGVEFYAVQKPGSHGQLPATLSRLKHLDSLPGAEQIPASPAVAIWDRNGKLAYFGPYSEGLTCNSSNSFIEPILQALEDNRPVSATHTLAIGCYCPWPA	failed
MRQTQVKSPYCHQSNYKLAIAIITVITGTVVTGATVTTGTAIMNGVKTAGGIMIMATIVAGISVKRMNVAIVKAGAIVTIIVEKAADMDTAIKHIRQWSTMPDATLARLIRPTNQLFNA	failed
MRQYNPPAMNIPQEVARRRTFAIISHPDAGKTTLTEKLLLFAGAIQIAGSVKARKASRHASSDWMEIEKQRGISVASSVMQMEYRDCVINLLDTPGHQDFSEDTYRVLTAVDAALMVIDAANGVEPQTIRLLQVCRARNTPIITFINKLDREVREPLELLSEIEGHLGMDTVPFSWPVGMGKAFGGVFDIRRNRMRIFRAGQERRGEDDEFIDGLDNPEIPRRFGAAFAQASGEIELINEAAPAFDREAFLAGKQTPVFFGSAINNFGVQEVLDALVDQAPAPGPRQALEREVRPDEPKFTGVVFKVQANMDPAHRDRVAFVRVSSGRFERGMRLKVARTGKEMRPNNVVSFLSQRRELLDEAYAGDVIGIPNHGVLQLGDVLTEGESLRFTGLPFFAPELFQAVEVKDPLRTKQLRVGLTQLGEEGAIQVFRPEAAGGALLLGAVGQLQFEVVAHRLKTEYGVDARMMPSRYTSARWITSDDPRALRKFMDANAAHIAYDVVDAAAFLITSPAQLRVAEDLYPNVKFHALREHGGKVFGDKA	failed
MRRCCGDLAASRGGCEPASRNLTRTRLTFAALGRINRPAEHDREDAMTRQEARDHEPRDQDAALSRRTLVRGLALGAAATMAGPALAQTGPAAPPTTITTPPRDFGPNGAPTTYFWDPDIIAVDPSFDDLAQPNTAIKRLYTGVLWAEGPAWSAQGRYLLWSDIPNNRQMRWSEDDGRISVFRSPSNNSNGNSFDFQGRQLSCEHLTRRVTRYEHDGTATVLCDNYNGKKLNSPNDVVAHPDGSYWFTDPPYGGQLYEGEPDAAGGPSNSGGKLNPRIGQPAGFTPGKRELPTNCYRIDPSGRVDLVVTEEQVPDPNGLCFSPDFKKLYVVSTGKGPGDSGPGGKGEIFVFDVGADNKLSNQKRFSDCTIDGVKCGPDGVRCDVNGNVWASSNAGRAVGYSGVTVWSPEGKLLGRIRLPEVCGNICFGGPKRNRLFMAASQSLYAVFTATQGAGPGLEHHHHHH	not failed
MRRGDIGSCDRVDPSGKTLAGCDAGGDRGLGHGAFSSRAMWASDRTAARLLRPTLRQINTRLAGPPDPSISASMERAADMQTLLREIRNTPLLWMLVFVPIVLLAEAAAPHSHTLLFVLAVLAIVPLAALLSHATEAVAAKTGDAVGGLLNATLGNLTELIIAITALRAGQYMLVKASIAGAIVTNAVFMLGACLLLGGLRYHVQEYNRAGARLSSGLLLMATVALLAPSAVADLEHLPQGGGILNKLSVGISVLLIIAYALGLLFSLGTHKELFASADHGDDKEAHWPIGIAVGTLLVVTVLVALVSEIFVESVQKAAETFGMSPAFVGFIIVSLVGAAAEFAVAFGAARKDRLDMVVSIALGSASQIALFVAPALVLLSYVVGPTPMNLQFWPGAVTMVMIATVTSAFITASGRSAWFVGALMIFIYAVFALTLYVVPPAGEG	failed
MRRITVGPFNRVEGDLEVRLDIDDGVVVSAEVTAPLYRGFEQILEGRPSLDALTLAPRICGICSVSQSMAAVAALRAVDGLHPAPNGLHAANIAHAAENAADHLTHFYVFFMPDFARDSYAAWPWHPAVAERFTATRGTAAREVLPARARLLEIMGLIAGKWPHSLAFQPGGTTRAIGLGERVRLLSIIADFRGFLESIVFGDDLEAVLALRSAAALESWRDGRIGDFARFLAIADDLALDKLGRGATSLMSFGAYQGLEAPLFAAGLYDPATSTPRVLDIDAITEDVSHAWMRDTAAEPALAQTLPDADRPGGYSWCKAPRLDSRPIEVGALARQAVDGDALIRDLVRRHGPNVRTRVIARLLETARLALAMDRWARQIALDAPFLDAAARVGEGAGIGLVEAARGSLGHWIELSGDRIRRYQIIAPTTWNFSPRDADGVAGPLEQALVGTPVGAEGAASVAVQHVVRSFDPCMVCTAH	failed
MRRLFPEESEALLFKTLNYIPIPILLSEALAVEGRRPSTHRIHRFMNHAFVEQLGYNLSEIPNIAAWFDTVYPDPIIREQAMLEWDSVVYESEQQGLSTAGFKTFIRCGTGQFRWFLINAQLTTENQSNLNIVTMRDVHQLQLLLEENERQSKTDLLTGLANRRQIEDVLAAAMAKSDRTQSSLCVVMCDIDFFKNINDNFGHLCGDDVLKIVASQLQHSAQAATCIARWGGEEFLIVLEHVVPESAGVLCEQLRGLIAATDYQSYGQHMQLTMSFGCVQYQANESLQSLLCRVDKALYQAKNGGRNQVVMD	failed
MRRLNLILLLSAVTAALAFVISCKETNAERLEKMCGEWVSTGGKPPFTLWEEDGRYRVTVMHRNHTGGSEAETYLVRETEGVLFIETGFAVMMDYDREKDRIRLSPGGEYRRKSDGTLKQ	failed
MRRLNRFKAPDEKVNTLFQVYKTISFWKVVKNTVVVEFGRFFPWMGGKRNIYRACLGMKIGKKTAIAYKVMPDLFFPEKITIGENSIIGYHTTILTHEYLLSEYHVGEVVIGKNVMVGANVTILPGIEIGDGAIVAAGAVVSKDVPPESFAYGNPLVIKEKAALEHHHHHH	not failed
MRRPPVVGVLLAAGRGSRFDPDGTVNKLLAALPDGTPVAVQAARHLRAVLDDVVAVVPAAGTHGAEVERLAALLAEAGCEVLRCARAARGMGASLAAGVAARPHAGGWIIALADMPWLAPHTIARVAQALDARHCVAPFHQGRRGHPIGFGADYFAGLAALDGDEGARALIDPARLIRLDVGDAGTLRDVDTPADVCGA	failed
